{"source": "IntAct's records for PubMed 25737013", "parents": {"B1": {"name": "Protein arginine N-methyltransferase 9 (Homo sapiens), Q6P2P2 (parent)", "chain": "MSNSRPRSRRDAGGGAGAAGRDELVSRSLQSAEHCLGVQDFGTAYAHYLLVLSLAPELKHDVKETFQYTLFRWAEELDALSRIQDLLGCYEQALELFPDDEVICNSMGEHLFRMGFRDEAAGYFHKAVKLNPDFSDAKENFYRVANWLVERWHFIMLNDTKRNTIYNAAIQKAVCLGSKSVLDIGAGTGILSMFAKKAGAHSVYACELSKTMYELACDVVAANKMEAGIKLLHTKSLDIEIPKHIPERVSLVVTETVDAGLFGEGIVESLIHAWEHLLLQPKTKGESANCEKYGKVIPASAVIFGMAVECAEIRRHHRVGIKDIAGIHLPTNVKFQSPAYSSVDTEETIEPYTTEKMSRVPGGYLALTECFEIMTVDFNNLQELKSLATKKPDKIGIPVIKEGILDAIMVWFVLQLDDEHSLSTSPSEETCWEQAVYPVQDLADYWIKPGDHVMMEVSCQDCYLRIQSISVLGLECEMDVAKSFTQNKDLLSLGNEAELCSALANLQTSKPDAVEQTCILESTEIALLNNIPYHEGFKMAMSKVLSSLTPEKLYQTMDTHCQNEMSSGTGQSNTVQNILEPFYVLDVSEGFSVLPVIAGTLGQVKPYSSVEKDQHRIALDLISEANHFPKETLEFWLRHVEDESAMLQRPKSDKLWSIIILDVIEPSGLIQQEIMEKAAISRCLLQSGGKIFPQYVLMFGLLVESQTLLEENAVQGTERTLGLNIAPFINQFQVPIRVFLDLSSLPCIPLSKPVELLRLDLMTPYLNTSNREVKVYVCKSGRLTAIPFWYHMYLDEEIRLDTSSEASHWKQAAVVLDNPIQVEMGEELVLSIQHHKSNVSITVKQ"}, "B2": {"name": "Splicing factor 3B subunit 2 (Homo sapiens), Q13435 (parent)", "chain": "MATEHPEPPKAELQLPPPPPPGHYGAWAAQELQAKLAEIGAPIQGNREELVERLQSYTRQTGIVLNRPVLRGEDGDKAAPPPMSAQLPGIPMPPPPLGLPPLQPPPPPPPPPPGLGLGFPMAHPPNLGPPPPLRVGEPVALSEEERLKLAQQQAALLMQQEERAKQQGDHSLKEHELLEQQKRAAVLLEQERQQEIAKMGTPVPRPPQDMGQIGVRTPLGPRVAAPVGPVGPTPTVLPMGAPVPRPRGPPPPPGDENREMDDPSVGPKIPQALEKILQLKESRQEEMNSQQEEEEMETDARSSLGQSASETEEDTVSVSKKEKNRKRRNRKKKKKPQRVRGVSSESSGDREKDSTRSRGSDSPAADVEIEYVTEEPEIYEPNFIFFKRIFEAFKLTDDVKKEKEKEPEKLDKLENSAAPKKKGFEEEHKDSDDDSSDDEQEKKPEAPKLSKKKLRRMNRFTVAELKQLVARPDVVEMHDVTAQDPKLLVHLKATRNSVPVPRHWCFKRKYLQGKRGIEKPPFELPDFIKRTGIQEMREALQEKEEQKTMKSKMREKVRPKMGKIDIDYQKLHDAFFKWQTKPKLTIHGDLYYEGKEFETRLKEKKPGDLSDELRISLGMPVGPNAHKVPPPWLIAMQRYGPPPSYPNLKIPGLNSPIPESCSFGYHAGGWGKPPVDETGKPLYGDVFGTNAAEFQTKTEEEEIDRTPWGELEPSDEESSEEEEEEESDEDKPDETGFITPADSGLITPGGFSSVPAGMETPELIELRKKKIEEAMDGSETPQLFTVLPEKRTATVGGAMMGSTHIYDMSTVMSRKGPAPELQGVEVALAPEELELDPMAMTQKYEEHVREQQAQVEKEDFSDMVAEHAAKQKQKKRKAQPQDSRGGSKKYKEFKF"}, "B3": {"name": "Splicing factor 3B subunit 2 (Homo sapiens), Q13435 (parent)", "chain": "B2 chain", "partner": "B1 chain"}}, "data": [{"variants_of": "B1", "conditions": "with sf3b2_human SF3B2, Q13435", "values": [{"variant": "L182A;D183A;I184A;G185A", "effect of a mutation on the interaction": "disrupting interaction strength"}]}, {"variants_of": "B2", "conditions": "with smn_human SMN1, Q16637", "values": [{"variant": "R508K", "effect of a mutation on the interaction": "disrupting interaction strength"}]}, {"variants_of": "B3", "conditions": "with anm9_human PRMT9, Q6P2P2", "values": [{"variant": "R508K", "effect of a mutation on the interaction": "with no effect"}]}, {"variants_of": "B3", "conditions": "with anm9_human PRMT9, Q6P2P2", "remark": "another data set of the same source", "values": [{"variant": "R537K", "effect of a mutation on the interaction": "with no effect"}, {"variant": "R471K", "effect of a mutation on the interaction": "with no effect"}, {"variant": "R530K", "effect of a mutation on the interaction": "with no effect"}, {"variant": "R502K", "effect of a mutation on the interaction": "with no effect"}, {"variant": "R455K;R456K;R459K", "effect of a mutation on the interaction": "with no effect"}, {"variant": "R495K", "effect of a mutation on the interaction": "with no effect"}, {"variant": "R515K", "effect of a mutation on the interaction": "with no effect"}]}]}
